Reference: patent US7888089B2, “eNOS mutations useful for gene therapy and therapeutic screening” (Yale University, priority 1999, dated 2011)
Entries after “also recorded” stand apart in the source; their conditions may differ. Where two headings read alike, the source gives them in different places.

What was measured:
[1] = system: Akt; test: In vitro kinase reaction with Akt immunoprecipitated from COS cells; type: biochemical; details: HA-Akt immunoprecipitate, n=3
[2] = system: eNOS; test: Hemoglobin capture assay of NO production by purified eNOS; type: biochemical, bovine; details: for Kcat (substrate Arginine, Hemoglobin capture): rate of NO production vs L-arginine, optimal conditions
Method: Assay for NOS Activity—NO production was measured by the hemoglobin capture assay as described (Kelm et al., 1988). Briefly, the reaction mixture contained eNOS (0.5-2.5 μg), oxyhemoglobin (8 μM), L-arginine (100 μM), BH4 (5 μM), CaCl2 (120 μM), calmodulin (120-200 nM), and NADPH (100 μM) in HEPES buffer (50 mM), pH 7.4. […] Under these conditions, free calcium was calculated using the WinMAXC program, version
NOS activity was monitored for linearity over 2 min at 401 nm, and NO production was calculated based on the change of absorbance using the extinction coefficient of 60 mM^−1 cm^−1. All reactions were carried out at 23° C., and each data point represents 3-8 observations. The extinction coefficient of 0.0033 μM^−1 cm^−1 at 276 nm was used for determination of calmodulin concentration. […] When the inactivation of eNOS was determined by the addition of EGTA (200-800 μM) to the reaction mixture, chelator was added 1 min after initiation of the reaction by NADPH. Identical conditions were used when NADPH-cytochrome c reductase activity was examined. These reactions contained CaM (120 nM) and CaCl2 (200 μM) in a 0.5-ml volume with eNOS (0.5 μg).

[3] = system: eNOS; test: NOS activity (3H-L-arginine to 3H-L-citrulline) in COS cell lysates; type: biochemical, bovine; details: COS cells transfected with eNOS only, n=3
Description: NOS activity assays: The conversion of ^3H-L-arginine to ^3H-L-citrulline was used to determine NOS activity in COS cell or endothelial cell lysates as previously described by Garcia-Cardena et al. (1998).

[4] = system: eNOS; test: Conversion of L-arginine to L-citrulline by purified eNOS; type: biochemical, bovine; details: for Kcat (CaM, L-Citrulline): CaM activation of NOS activity
Method: The conversion of L-arginine to L-citrulline was assayed as described previously by Bredt et al. (1990). Briefly, eNOS (0.25-2 μg) was incubated for 3-10 min at 23° C. in the following reaction mixture: 3 pmol of L-[3H]arginine (55 Ci/mmol), 10-300 μM arginine, 1 mM NADPH, 120-200 nM calmodulin, 2 mM CaCl2, and 30 μM BH4 in a final reaction volume of 50-100 μl. The reaction was terminated by the addition of 0.5 ml of 20 mM HEPES, pH 5.5, containing 2 mM EGTA and EDTA. The reaction mixture was placed over Dowex AG50WX8, and the flow-through was counted on a Packard 1500 liquid scintillation analyzer.

[5] = system: cytochrome c; test: NADPH-cytochrome c reductase activity of purified eNOS; type: biochemical; details: for Kcat (CaM, Cytochrome c): CaM activation of cytochrome c reduction; for EC50: cytochrome c reduction; for Km: Km for NADPH; for Kcat − CaM (NADPH, Cytochrome c) / Kcat + CaM (NADPH, Cytochrome c): NADPH dependence
Method: Assays for Reductase Activity—NADPH-cytochrome c reductase activity and 2,6-dichlorophenolindophenol (DCIP) reduction were measured as a change in absorbance at 550 nm as described previously by Martasek et al. (1999) and Masters et al. (1967) using an extinction coefficient of 0.021 μM^−1 cm^−1 for both cytochrome c and DCIP. Briefly, a reaction mixture (1 ml) contained either cytochrome c (90 μM); DCIP (36 μM), HEPES buffer (50 mM) at pH 7.6, NaCl (250 mM), NADPH (100 μM), calmodulin (120 nM), and CaCl2 (200 μM); or other substances as indicated. The reaction was monitored for 60 s (at 23° C.) after the addition of eNOS. When inactivation of reductase activity was determined by the addition of EGTA (200-800 μM), chelator was added 1 min after initiation of the reaction and monitored for an additional 1 min. The reaction contained HEPES buffer (50 mM) at pH 7.6, CaM (120 nM), and CaCl2 (200 μM) and was initiated with NADPH (100 μM). No NaCl was added in experiments that examined EGTA inactivation of eNOS to mimic the conditions used in the hemoglobin capture experiments. […] Determination of the calcium EC50 for eNOS was performed as described above for the hemoglobin capture assay.

EC50 ([2]; EC50 for free calcium, NO production, 250 nM CaM, read-out: EC50 (Ca2+, Hemoglobin capture, 100 mM KCl)): 310 nM
EC50 ([4]; EC50 for CaM, NOS activity): 8 nM
EC50 ([5]; EC50 for CaM, listed as wild type, read-out: EC50 (CaM, Cytochrome c)): 21 nM
EC50 ([5]; EC50 for CaM, read-out: EC50 (CaM, Cytochrome c)): 13 nM
EC50 ([5]; EC50 for free calcium, read-out: EC50 (Ca2+, Cytochrome c, 100 mM KCl)): 290 nM
cytochrome c reduction, first value of pair (with superoxide dismutase) ([5]; absence of CaM): 86 ± 6 min⁻¹
cytochrome c reduction, second value of pair (without superoxide dismutase) ([5]; absence of CaM): 95 ± 8 min⁻¹
cytochrome c reduction with superoxide dismutase ([5]; presence of CaM): 610 ± 51 min⁻¹
cytochrome c reduction without superoxide dismutase ([5]; presence of CaM): 866 ± 8 min⁻¹
relative decrease in cytochrome c activity in the presence of superoxide dismutase ([5]; presence of CaM): 30%
CaM-stimulated cytochrome c reduction ([5]; presence of CaM, n=3-5): 749 ± 35 min⁻¹
level of stimulation of cytochrome c reduction by CaM ([5]; with vs without CaM): 8 fold
B1: Wild type: Wild type bovine endothelial nitric oxide synthase (eNOS) (protein, UniProt P29473 2-1205, looked up)
Nitric oxide synthase 3: GNLKSVGQEPGPPCGLGLGLGLGLCGKQGPASPAPEPSRAPAPATPHAPDHSPAPNSPTLTRPPEGPKFPRVKNWELGSITYDTLCAQSQQDGPCTPRCCLGSLVLPRKLQTRPSPGPPPAEQLLSQARDFINQYYSSIKRSGSQAHEERLQEVEAEVASTGTYHLRESELVFGAKQAWRNAPRCVGRIQWGKLQVFDARDCSSAQEMFTYICNHIKYATNRGNLRSAITVFPQRAPGRGDFRIWNSQLVRYAGYRQQDGSVRGDPANVEITELCIQHGWTPGNGRFDVLPLLLQAPDEAPELFVLPPELVLEVPLEHPTLEWFAALGLRWYALPAVSNMLLEIGGLEFSAAPFSGWYMSTEIGTRNLCDPHRYNILEDVAVCMDLDTRTTSSLWKDKAAVEINLAVLHSFQLAKVTIVDHHAATVSFMKHLDNEQKARGGCPADWAWIVPPISGSLTPVFHQEMVNYILSPAFRYQPDPWKGSATKGAGITRKKTFKEVANAVKISASLMGTLMAKRVKATILYASETGRAQSYAQQLGRLFRKAFDPRVLCMDEYDVVSLEHEALVLVVTSTFGNGDPPENGESFAAALMEMSGPYNSSPRPEQHKSYKIRFNSVSCSDPLVSSWRRKRKESSNTDSAGALGTLRFCVFGLGSRAYPHFCAFARAVDTRLEELGGERLLQLGQGDELCGQEEAFRGWAKAAFQASCETFCVGEEAKAAAQDIFSPKRSWKRQRYRLSTQAEGLQLLPGLIHVHRRKMFQATVLSVENLQSSKSTRATILVRLDTAGQEGLQYQPGDHIGICPPNRPGLVEALLSRVEDPPPPTESVAVEQLEKGSPGGPPPSWVRDPRLPPCTLRQALTFFLDITSPPSPRLLRLLSTLAEEPSEQQELETLSQDPRRYEEWKWFRCPTLLEVLEQFPSVALPAPLLLTQLPLLQPRYYSVSSAPNAHPGEVHLTVAVLAYRTQDGLGPLHYGVCSTWLSQLKTGDPVPCFIRGAPSFRLPPDPYVPCILVGPGTGIAPFRGFWQERLHDIESKGLQPAPMTLVFGCRCSQLDHLYRDEVQDAQERGVFGRVLTAFSREPDSPKTYVQDILRTELAAEVHRVLCLERGHMFVCGDVTMATSVLQTVQRILATEGDMELDEAGDVIGVLRDQQRYHEDIFGLTLRTQEVTSRIRTQSFSLQERHLRGAVPWAFDPPGPDTPGP
phosphorylation of substrate by active Akt [1]: 115.4±3.8 pmol of ATP/nmol substrate
NO production after calcium chelation with EGTA ([2]; 600 μM EGTA, 200 μM calcium, listed as wild type eNOS): no activity was detected; also recorded: no detectable activity
Km ([2]; Km for L-arginine, read-out: Km (substrate Arginine, Hemoglobin capture)): 1.8 µM
Km ([2]; Km for NADPH, in presence of CaM, read-out: Km (NADPH, Hemoglobin capture)): 8 µM
Kcat (NADPH, Hemoglobin capture) ([2]; NADPH dependence, in presence of CaM): 17 ± 1 min⁻¹
Kcat (Ca2+, Hemoglobin capture, 100 mM KCl) ([2]; calcium activation, 250 nM CaM): 58 ± 1 min⁻¹
maximal turnover rate, FIG. 8C ([2]; calcium-dependent NO production): 58 min1
maximal turnover rate, FIG. 8A ([2]; calmodulin-dependent hemoglobin capture): 22 min⁻¹
Kcat (substrate Arginine, Hemoglobin capture) [2]: 27 ± 1 min⁻¹
Kcat (substrate Arginine, Hemoglobin capture) ([2]; listed as wild type): 27 ± 1 min⁻¹
NOS activity in lysates [3]: 85.3±27.0 pmol L-citrulline generated/mg protein
Kcat (CaM, L-Citrulline) [4]: 22 ± 2 min⁻¹
Kcat (CaM, L-Citrulline) ([4]; listed as wild type): 22 min⁻¹
Kcat (CaM, Cytochrome c) [5]: 620 ± 78 min⁻¹
Kcat (CaM, Cytochrome c) ([5]; listed as wild type eNOS): 620 min⁻¹
Km ([5]; absence of CaM): 400 nM
Km ([5]; presence of CaM): 750 nM
Kcat − CaM (NADPH, Cytochrome c) ([5]; absence of CaM): 70 ± 5 min⁻¹
Kcat − CaM (NADPH, Cytochrome c) ([5]; absence of CaM, listed as wild type eNOS): 70 min⁻¹
Kcat + CaM (NADPH, Cytochrome c) ([5]; presence of CaM): 460 ± 18 min⁻¹
Kcat + CaM (NADPH, Cytochrome c) ([5]; presence of CaM, listed as wild type eNOS): 460 min⁻¹
Kcat (Ca2+, Cytochrome c, 100 mM KCl) ([5]; calcium activation): 1909 ± 33 min⁻¹
maximal turnover rate, FIG. 8D ([5]; calcium-dependent cytochrome c reduction): 1930 min⁻¹
maximal turnover rate, FIG. 8B ([5]; calmodulin-dependent cytochrome c reduction): 620 min1
reductase activity after calcium chelation with EGTA ([5]; highest concentration of EGTA): residual reductase activity was found
